The record followed here is patent US7572594B2, “Screening assays for agonists or antagonists or receptor activator of NF-κB” (Immunex Corporation, priority 2000, dated 2009).

Test [1] concerns endogenous c-jun kinase (JNK). Description: JNK immune-complex kinase assay in transfected 3T3 cells. It is filed as cell-based, murine. The following applies: 3T3 cells 24 hours after transfection, absence of RANK-L stimulation. The protocol:
This example describes evaluating murine 3T3 cells transfected with plasmids containing DNA encoding human FEO RANK (SEQ ID NO:9), and murine 3T3 cells expressing recombinant DNA encoding human wild type RANK (SEQ ID NO:1) for their relative ability to activate endogenous c-jun kinase (JNK) in the absence of RANK-L stimulation. JNK is known to be activated as a consequence of RANK signal transduction.
For JNK assays, whole cell extracts were prepared from 3T3 cells 24 hours after transfection. Cells were lysed in a buffer containing 20 mM HEPES, pH 7.4, 2 mM EGTA, 50 mM β-glycerol phosphate, 1 mM DTT, 1 mM sodium orthovanadate, 1% Triton-X 100, 10% glycerol and the protease inhibitors leupeptin, pepstatin A, and PMSF. Clarified lysates were immunoprecipitated with 1 μg each anti-JNK (FL) and anti-JNK (C17) antibodies (both from Santa Cruz Biotechnology, Inc. Santa Cruz, Calif.). […] JNK activity was determined by an immune-complex assay using 1 μg of a fusion protein of glutathione-S-transferase and amino acids 1-169 of […] (GST-cJun (1-169)) (UBI, Lake Placid, N.Y.) and 5 μCi of [^32P]-ATP as substrate in 40 μl of assay buffer at 30° C. for 20 min. […]

The next test deals with c-src tyrosine kinase. Description: c-src immune complex kinase assay in RANK −/− osteoclast precursors infected with RANK retrovirus. It is filed as cell-based, mouse. The protocol:
Experiments were conducted in which DNA encoding wild-type or human RANK/TRAF6 binding mutant (RANK Δ340-421) was introduced into hematopoietic cells isolated from RANK −/− mice. Full-length and mutant human RANK DNAs were subcloned into the pBMNZ retroviral vector as previously described (Kinsella and Nolan, 1996, Human Gene Therapy 7:1405-1413). Infectious RANK-containing retrovirus was produced in 293-E Phoenix packaging cells as described (Kinsella and Nolan, 1996). Supernatants from these cells were used as a source of infectious virus particles.
The generation of the RANK −/− mice used in these assays has been described previously (Dougall et al., 1999). Spleen cells were isolated from 3-6 week old RANK−/− mice and enriched for osteoclast precursors by depleting the initial cell population of various types of cells other than osteoclast precursors. For this “depletion” step, the cells were incubated with biotinylated antibodies against CD3 (specific for T cells), Ter-119 (specific for erythrocytes), and GR-1 (specific for granulocytes). After the antibodies had bound to their respective target cells, streptavidin-conjugated magnetic beads were added to the culture, and the mixture of cells was passed over magnetic columns (MACS depletion columns; MILLTENNYI). […]
To induce c-src and F-actin rings, recombinant mRANK-L/leucine zipper protein was added to the cultures at a concentration of 1 μg/ml for various times after which the cells were lysed in a buffer containing 50 mM HEPES (pH 7.2), 10% glycerol, 250 mM NaCl and 1% Triton X-100. […] C-src activity in the immune complex was monitored using a commercially available assay kit (Upstate Biotechnology, Lake Placid, N.Y.). […] The phosphorylated substrate peptide was then separated from the residual labeled ATP using phosphocellulose paper and labeled peptide was quantified using a scintillation counter. […]

The subject of test [2] is spleen cells from RANK −/− mice. Description: CaPO4 resorption (pit formation) assay. It is filed as cell-based, mouse. Particulars: 5 days in 40 ng/ml CSF-1 and 200 ng/ml mRANK-L on CaPO4 film; listed as full-length RANK. The source says: The resorption of CaPO4, upon which this assay is based, is considered to be a measure of osteoclast activity. Spleen cells were isolated from 3-6 week old RANK −/− mice and treated as described in Example 9 to remove cells expressing the CD3, Ter-119, and GR-1 antigens. Cells not expressing any of these antigens were harvested and infected as described in Example 9 with retroviral vector particles containing full-length or TRAF6 binding site deletion mutants of RANK.
Following infection, the spleen cells were harvested and plated in MEM containing 10% fetal bovine serum containing 40 ng/ml CSF-1 and 200 ng/ml mRANK-L onto 16 well quartz slides coated with a thin film of CaPO4 (Osteologic, BD Biosystems). After 5 days in culture, the slides were washed, the cells removed by washing with bleach, and the slides washed again with buffer. […] The number of pits in the CaPO4 film is a measure of the extent to which the RANK-L induced the cells grown on that slide to differentiate into osteoclasts.
If desired, the CaPO4 film can be stained using a 0.5% solution of alizarin red for 4 to 5 minutes followed by washing in water. After staining, the resorptive lacunae are visualized by phase contrast microscopy as a clear area on a red background.

Entries after “also recorded” stand apart in the source; their conditions may differ.

B1: wild type RANK: full-length human RANK, receptor activator of NF-κB (SEQ ID NO:2), expressed from vector or retrovirus (protein, listed as Homo sapiens)
chain: MAPRARRRRPLFALLLLCALLARLQVALQIAPPCTSEKHYEHLGRCCNKCEPGKYMSSKCTTTSDSVCLPCGPDEYLDSWNEEDKCLLHKVCDTGKALVAVVAGNSTTPRRCACTAGYHWSQDCECCRRNTECAPGLGAQHPLQLNKDTVCKPCLAGYFSDAFSSTDKCRPWTNCTFLGKRVEHHGTEKSDAVCSSSLPARKPPNEPHVYLPGLIILLLFASVALVAAIIFGVCYRKKGKALTANLWHWINEACGRLSGDKESSGDSCVSTHTANFGQQGACEGVLLLTLEEKTFPEDMCYPDQGGVCQGTCVGGGPYAQGEDARMLSLVSKTEIEEDSFRQMPTEDEYMDRPSQPTDQLLFLTEPGSKSTPPFSEPLEVGENDSLSQCFTGTQSTVGSESCNCTEPLCRTDWTPMSSENYLQKEVDSGHCPHWAASPSPNWADVCTGCRNPPGEDCEPLVGSPKRGPLPQCAYGMGLPPEEEASRTEARDQPEDGADGRLPSSARAGAGSGSSPGGQSPASGNVTGNSNSTFISSGQVMNFKGDIIVVYVSQTSQEGAAAAAEPMGRPVQEETLARRDSFAGNGPRFPDPCGGPEGLREPEKASRPVQEQGGAKA
B1: the “activation of JNK” value in test [1] is given as “not”. In the test on c-src tyrosine kinase (cell extracts following differentiation), the “32P incorporated into a c-src-specific substrate versus extracts from cells defective in RANK” value was “about 15 fold”. In the test with c-src tyrosine kinase (cells differentiated after retroviral infection, background = uninfected RANK −/− cells), the c-src activity result is on record as “high levels of c-src activity”. For the same molecule, the CaPO4 resorption entry in test [2] is recorded as “resorbed the CaPO4 matrix; also recorded: high levels of CaPO4 resorption”.
